B1: Staphylococcal nuclease domain-containing protein 1 (Homo sapiens), Q7KZF4 (parent)
chain: MASSAQSGGSSGGPAVPTVQRGIIKMVLSGCAIIVRGQPRGGPPPERQINLSNIRAGNLARRAAATQPDAKDTPDEPWAFPAREFLRKKLIGKEVCFTIENKTPQGREYGMIYLGKDTNGENIAESLVAEGLATRREGMRANNPEQNRLSECEEQAKAAKKGMWSEGNGSHTIRDLKYTIENPRHFVDSHHQKPVNAIIEHVRDGSVVRALLLPDYYLVTVMLSGIKCPTFRREADGSETPEPFAAEAKFFTESRLLQRDVQIILESCHNQNILGTILHPNGNITELLLKEGFARCVDWSIAVYTRGAEKLRAAERFAKERRLRIWRDYVAPTANLDQKDKQFVAKVMQVLNADAIVVKLNSGDYKTIHLSSIRPPRLEGENTQDKNKKLRPLYDIPYMFEAREFLRKKLIGKKVNVTVDYIRPASPATETVPAFSERTCATVTIGGINIAEALVSKGLATVIRYRQDDDQRSSHYDELLAAEARAIKNGKGLHSKKEVPIHRVADISGDTQKAKQFLPFLQRAGRSEAVVEYVFSGSRLKLYLPKETCLITFLLAGIECPRGARNLPGLVQEGEPFSEEATLFTKELVLQREVEVEVESMDKAGNFIGWLHIDGANLSVLLVEHALSKVHFTAERSSYYKSLLSAEEAAKQKKEKVWAHYEEQPVEEVMPVLEEKERSASYKPVFVTEITDDLHFYVQDVETGTQLEKLMENMRNDIASHPPVEGSYAPRRGEFCIAKFVDGEWYRARVEKVESPAKIHVFYIDYGNREVLPSTRLGTLSPAFSTRVLPAQATEYAFAFIQVPQDDDARTDAVDSVVRDIQNTQCLLNVEHLSAGCPHVTLQFADSKGDVGLGLVKEGLVMVEVRKEKQFQKVITEYLNAQESAKSARLNLWRYGDFRADDADEFGYSR

Variants of B1 are the subject of this test. The following applies: with piwl1_human PIWIL1, Q96J94.
piwl1_human PIWIL1, Q96J94, sequence (Q96J94 whole entry): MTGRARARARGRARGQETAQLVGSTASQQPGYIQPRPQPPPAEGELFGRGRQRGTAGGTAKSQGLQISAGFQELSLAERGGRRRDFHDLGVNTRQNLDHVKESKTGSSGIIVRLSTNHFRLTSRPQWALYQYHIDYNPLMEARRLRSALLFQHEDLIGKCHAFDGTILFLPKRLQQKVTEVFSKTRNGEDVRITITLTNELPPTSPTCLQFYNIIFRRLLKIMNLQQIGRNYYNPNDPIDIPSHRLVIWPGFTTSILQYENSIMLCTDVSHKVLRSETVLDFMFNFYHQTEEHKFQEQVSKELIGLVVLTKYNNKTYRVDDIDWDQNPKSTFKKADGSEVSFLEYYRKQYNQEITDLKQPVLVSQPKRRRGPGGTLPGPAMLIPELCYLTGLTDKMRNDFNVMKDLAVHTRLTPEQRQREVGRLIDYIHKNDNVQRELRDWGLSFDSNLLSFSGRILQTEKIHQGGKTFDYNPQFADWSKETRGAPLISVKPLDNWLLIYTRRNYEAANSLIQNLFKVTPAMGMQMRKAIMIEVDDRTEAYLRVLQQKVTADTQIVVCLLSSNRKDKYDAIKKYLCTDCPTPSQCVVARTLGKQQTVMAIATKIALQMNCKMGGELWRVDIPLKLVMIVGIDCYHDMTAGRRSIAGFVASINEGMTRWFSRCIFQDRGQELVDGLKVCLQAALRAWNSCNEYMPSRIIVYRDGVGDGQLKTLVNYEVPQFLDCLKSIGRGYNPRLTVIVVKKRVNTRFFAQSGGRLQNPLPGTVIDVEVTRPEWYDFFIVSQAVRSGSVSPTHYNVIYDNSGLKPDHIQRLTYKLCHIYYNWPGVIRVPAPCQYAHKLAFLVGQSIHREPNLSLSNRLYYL
On to Y766L, for which the “effect of a mutation on the interaction” value is “decreasing interaction”.

Consider N768R, for which the “effect of a mutation on the interaction” value is reported as “disrupting interaction”.

As to N768Q, the “effect of a mutation on the interaction” value is reported as “decreasing interaction”.

For Y763L, the “effect of a mutation on the interaction” value is “decreasing interaction”.

Consider F740L, for which the “effect of a mutation on the interaction” value is “decreasing interaction”.

As for Y746L, the “effect of a mutation on the interaction” value was “decreasing interaction strength”.

For the origin of these results see IntAct's records for PubMed 20937909.
